Assay [1] deals with T1, muANGPTL7-his (R&D Systems) (mouse, UniProt Q8R1Q3 22-337, limits assumed).
T1 construct: Bought protein; also called mouse ANGPTL7 protein
T1 sequence (looked up): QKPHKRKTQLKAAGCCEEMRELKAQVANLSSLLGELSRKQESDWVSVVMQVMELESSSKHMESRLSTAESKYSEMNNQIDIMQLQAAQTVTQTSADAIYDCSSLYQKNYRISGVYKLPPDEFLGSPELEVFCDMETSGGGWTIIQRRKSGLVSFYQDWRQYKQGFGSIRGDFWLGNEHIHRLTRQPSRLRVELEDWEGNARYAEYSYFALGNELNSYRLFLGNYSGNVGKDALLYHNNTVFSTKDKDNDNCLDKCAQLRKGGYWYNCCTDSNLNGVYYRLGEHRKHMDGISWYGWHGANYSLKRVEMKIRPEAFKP
Kind of assay: BLI Octet HTX; IgG on AHC sensor; muANGPTL7-his at 200 nM. The protocol:
(§1) Experiments were also conducted to determine the reactivity and dissociation constants (KD) of anti-ANGPTL7 antibodies with the mouse ANGPTL7 protein. Binding experiments were performed on Octet HTX (ForteBio) in 1×PBS, pH 7.4, 0.1 mg/mi BSA, 0.05% Sodium Azide, and 0.02% Tween 20. Antibodies at a concentration of 50 nM were loaded on pre-hydrated AHC biosensors for 5 mA. The loaded sensors were dipped into monovalent muANGPTL7-his (R&D Systems) at a concentration of 200 nM for 5 min of association, followed by 10 min of dissociation. […] Responses (nm) at the end of association were also determined (Table 5).
(In general: Biolayer interferometry detects binding as a change in optical thickness at a sensor tip.)

For assay [2], the target named is T2, P60 (huANGPTL7-Fibrinogen-his) (human, UniProt O43827 129-343).
T2 construct: also called human ANGPTL7 fibrinogen domain; not shown: C-terminal short linker and His tag
T2 sequence: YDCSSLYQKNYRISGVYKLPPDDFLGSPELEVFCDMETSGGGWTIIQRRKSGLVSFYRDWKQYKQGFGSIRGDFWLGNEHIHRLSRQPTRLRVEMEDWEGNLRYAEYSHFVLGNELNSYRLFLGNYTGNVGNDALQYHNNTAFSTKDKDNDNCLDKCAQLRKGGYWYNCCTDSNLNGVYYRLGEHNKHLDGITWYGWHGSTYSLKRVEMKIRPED
As to the kind of experiment: BLI Octet HTX; IgG on AHC sensor; P60 at 200 nM; 1:1 fit. How it is done:
ANGPTL7 Antibody Kinetics. Experiments were conducted to determine the reactivity and dissociation constants (KD) of anti-ANGPTL7 antibodies with the human fibrinogen domain of the ANGPTL7 protein. Binding experiments were performed on Octet HTX (ForteBio) in 1×PBS, pH 7.4, 0.1 mg/ml BSA, 0.05% Sodium Azide, and 0.02 Tween 20. Antibodies at a concentration of 50 nM were loaded on pre-hydrated AHC biosensors for 5 min. The loaded sensors were dipped into monovalent P60 (huANGPTL7-Fibrinogen-his) at a concentration of 200 nM for 5 min association, followed by 10 min dissociation. […] Responses (nm) at the end of association were also determined (Table 2).

For assay [3], the target named is T3, Pext-01 (huANGTPL7-FLAG multimer) (human, UniProt O43827 27-346).
T3 construct: also called PExt-1; human wild type ANGPTL7 multimer; not shown: FLAG tag
T3 sequence: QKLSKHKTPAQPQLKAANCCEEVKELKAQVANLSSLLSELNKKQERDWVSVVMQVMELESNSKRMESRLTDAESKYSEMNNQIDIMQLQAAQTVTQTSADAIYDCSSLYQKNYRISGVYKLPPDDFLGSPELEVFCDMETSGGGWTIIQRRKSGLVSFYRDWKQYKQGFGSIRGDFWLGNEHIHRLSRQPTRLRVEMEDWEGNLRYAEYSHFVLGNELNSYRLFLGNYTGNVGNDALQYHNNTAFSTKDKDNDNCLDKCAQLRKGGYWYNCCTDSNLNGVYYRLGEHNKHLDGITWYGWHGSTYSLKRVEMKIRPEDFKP
Kind of assay: BLI Octet HTX; IgG on AHC sensor; Pext-01 at 100 nM; 1:1 fit; apparent KD. The protocol: Experiments were also conducted to determine the reactivity and dissociation constants (KD) of anti-ANGPTL7 antibodies with the human ANGPTL7 multimer protein. Binding experiments were performed on Octet HTX (ForteBio) in 1×PBS, pH 7.4, 0.1 mg/ml BSA, 0.05% Sodium Azide, and 0.02% Tween 20. Antibodies at a concentration of 50 nM were loaded on pre-hydrated AHC biosensors for 5 mi. The loaded sensors were dipped into Pext-01 (huANGTPL7-FLAG) at a concentration of 100 nM for 5 min of association, followed by 10 min of dissociation. […] Responses (nm) at the end of association were also determined (Table 7).

For assay [4], the target named is T1, muANGPTL7-his (R&D Systems). As to the kind of experiment: BLI Octet HTX; IgG on AHC sensor; muANGPTL7-his at 200 nM; 1:1 fit. The protocol:
as §1

Assay [5] concerns the target T4, P66 (rabbit ANGPTL7-his) (rabbit, UniProt G1T4P1 27-344).
T4 construct: mature; also called rabbit ANGPTL7 protein
T4 sequence: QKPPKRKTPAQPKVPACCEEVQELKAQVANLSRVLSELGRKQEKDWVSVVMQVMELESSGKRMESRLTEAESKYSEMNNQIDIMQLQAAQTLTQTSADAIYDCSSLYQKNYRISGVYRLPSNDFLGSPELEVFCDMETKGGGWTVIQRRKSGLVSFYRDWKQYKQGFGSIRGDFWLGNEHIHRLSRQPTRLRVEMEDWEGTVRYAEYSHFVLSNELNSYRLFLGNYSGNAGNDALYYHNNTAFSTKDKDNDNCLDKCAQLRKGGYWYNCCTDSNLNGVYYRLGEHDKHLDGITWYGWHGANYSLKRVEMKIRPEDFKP
Kind of assay: BLI Octet HTX; IgG on AHC sensor; P66 at 200 nM. The protocol:
as §1, with “([…])” for “(KD)”, “rabbit” for “mouse”, “Rx PBS,” for “1×PBS,”, “min.” for “mA.”, “P66 (rabbit ANGPTL7-his)” for “muANGPTL7-his (R&D Systems)”, “6).” for “5).”

In assay [6] the target is T4, P66 (rabbit ANGPTL7-his). Kind of assay: BLI Octet HTX; IgG on AHC sensor; P66 at 200 nM; 1:1 fit. The protocol: as §1, with “([…])” for “(KD)”, “rabbit” for “mouse”, “Rx PBS,” for “1×PBS,”, “min.” for “mA.”, “P66 (rabbit ANGPTL7-his)” for “muANGPTL7-his (R&D Systems)”, “6).” for “5).”
The target of a further assay is T5, P62 (huANGPTL7-his) (human, UniProt O43827 27-346).
T5 construct: not shown: C-terminal short linker and His tag
T5 chain: T3 sequence with L33P, L58P
As to the kind of experiment: BLI Octet HTX; IgG on AHC sensor; P62 0.343-250 nM; global 1:1 fit (token printed under the kon column). How it is done: Experiments were also conducted to determine the reactivity and dissociation constants (KD) of anti-ANGPTL7 antibodies with the human ANGPTL7-his protein. Binding experiments were performed on Octet HTX (ForteBio) in 1×PBS, pH 7.4, 0.1 mg/mi BSA, 0.05% Sodium Azide, and 0.02% Tween 20. To measure monovalent binding kinetics, antibodies at a concentration of 50 nM were loaded on pre-hydrated AHC biosensors for 5 min. The loaded sensors were dipped into monovalent P62 (huANGPTL7-his) at a range of concentration from 0.343-250 nM (a serial 3-fold dilution) for 5 min association, followed by 10 min dissociation.

Positions count from the first letter of the chain named.

B1: ATX-P-429 (antibody, human IgG1, kappa, N297A, V domains shown)
VH: QVQLVQSGAEVKKPGASVKVSCKASGYTFSSYGISWVRQAPGQGLEWMGWISAYNGNTNYAQNLRGRVAMTTDTSTTTAYMELRSLRSDDTAVYYCARVSLVWFGELPRGFDYWGQGTLVTVSS
VL: not shown
notes: Full chains (VH + hIgG1-Agly-Fc)
As a reminder, the Kd is the constant that tells how readily two partners part at equilibrium. Higher therefore signals lower affinity. Take B1: the binding result (in assay [1]; in the assay with P66 (rabbit ANGPTL7-his) [5]) was “no binding (tested: 200 nM)” throughout. Further, the Kd in assay [2] stood at 75.3 nM. Also, the Response in assay [2] came to 0.52 nm; in assay [3], 0.58 nm; in assay [4] it was 0 nm; with P66 (rabbit ANGPTL7-his) [6], 0.04 nm.

B2: ATX-P-437 (antibody, human IgG1, kappa, N297A, V domains shown)
VH: QITLKESGPTLVKPTQTLTLTCTFSGFSLSTSGVGVGWIRQPPGKALEWLALIYWNDDKQYSPSLKSRLTITKDTSKNQVVLTMTNMDPMDTATYYCAHNPDYGDFFDYWGQGTLVTVSS
VL: not shown
notes: as for B1
Regarding B2, the binding result in assay [1] is recorded as “no binding (tested: 200 nM)”; with P62 (huANGPTL7-his), “binds”. The Kd in assay [2] was 0.658 nM; with P66 (rabbit ANGPTL7-his) [6], 0.786 nM. Also, the figures for the Response (in assay [2]; in assay [4]; with P66 (rabbit ANGPTL7-his) [6]) were 0.6 nm, 0.02 nm and 0.8 nm, respectively.

B3: ATX-P-435 (antibody, human IgG1, kappa, N297A, V domains shown)
VH: QLQLQESGPGLVKPSETLSLTCTVSGGSISSSSSYWGWIRQPPGKGLEWIGSIYYSGSTYSNPSLKSRVTISVDTSKNQFSLKLSSVTAADTAVYYCARQYISGTEYFQYWGQGTLVTVSS
VL: EIVLTQSPATLSLSPGERATLSCRASQSVSNYLAWYQQKPGQAPRLLIYDASNRATGIPARFSGSGSGTDFTLTISSLEPEDFAVYYCQQRSNWPSFGQGTRLEIKR
notes: as for B1
B3: the binding result (in assay [1]; with P66 (rabbit ANGPTL7-his) [5]) was “no binding (tested: 200 nM)” in each case. The Kd in assay [2] turned out to be 77 nM. In addition, the Response came to 0.45 nm in assay [2], 0.45 nm in assay [3], 0.01 nm in assay [4] and 0.01 nm with P66 (rabbit ANGPTL7-his) [6].

Values taken from patent publication US20250296996A1 (BROADWING BIO, published 2025).
